Target: Calmodulin (CaM), chicken, recombinant (chicken, UniProt P62149 2-149)
Test: circular dichroism titration; various amounts of CaNp added to a fixed amount of CaM; far-UV CD; 100 mM KCl, 2 mM CaCl2, pH 6.5
Conditions: both partners purified

B1: CaM-binding domain (target peptide) of calcineurin A, residues 391-414 (CaNp) (peptide)
peptide: ARKEVIRNKIRAIGKMARVFSVLR
notes: CaM target domain of the calcineurin catalytic subunit (CaN-A) α-isoform, residue 391-414; 13C,15N-labelled or unlabelled in the NMR samples; also called target peptide of CaN; not shown: CaM with factor Xa cleavage site IEGR (CaM-CaNp hybrid molecule), N-terminal, cleaved
stoichiometry N: 1

From paper PMC6151454, “The Recognition of Calmodulin to the Target Sequence of Calcineurin—A Novel Binding Mode” (Molecules : A Journal of Synthetic Chemistry and Natural …, 2017)
